Patent US7906477B2 (Genspera, Inc., priority 2002, dated 2011)
Square brackets hold non-standard residues; d marks the D form. Ends that are not written are not given here. Peptide text beside a SMILES is read from it. Tyr(3-NO2) = N[C@@H](Cc1ccc(O)c([N+](=O)[O-])c1)C(=O)O; 2Abz = Nc1ccccc1C(=O)O

Columns and labels:
[1] = biological target: sarcoplasmic reticulum (SR) and endoplasmic reticulum (ER) Ca^2+-ATPase (SERCA) pump; conditions: read-out: apparent dissociation constant for TG from the SERCA pump; cited from earlier work
[2] = biological target: T1, hK2 (Homo sapiens, UniProt P20151); test: hK2 hydrolysis of prodrug and non-fluorescent peptide by HPLC; assay type: biochemical; conditions: HPLC analysis
T1 construct: made in house
Procedure: FIG. 4 depicts HPLC analysis of the hydrolysis of the hK2 prodrug Ac-GKAFRR-L12ADT (SEQ ID NO:41) by hK2 ([…]) incubated in 50 mM Tris, 0.1 M NaCl, pH 7.8 at room temperature for 24 hours. The mass of each peak was confirmed by MALDI-TOF mass spectrometric analysis.
Fluorescent substrates were analyzed by means of a fluorescence plate-reader (ex=355 nm, em=460 nm). acGKAFRRL-12ADT (SEQ ID NO:41) and acGKAFRRLG (SEQ ID NO:43) were analyzed by HPLC and quantified by HLPC integration.
This putative hK2 prodrug was incubated with enzymatically active hK2 (4 μg/ml) to determine extent of hydrolysis over time. […] In 25 min, 50% was hydrolyzed and after 1 hour, more than 80% of the starting prodrug was hydrolyzed. The ratio of the products RL-12ADT:L-12ADT was 1:1.8, as determined by HPLC integration.

[3] = plasma stability of acetylated versus non-acetylated peptide (plasma species not stated); assay type: in vitro ADME; conditions: plate-reader assay and analytical HPLC
Procedure: Mouse plasma was obtained from cardiac puncture of anesthetized mice prior to euthanization by CO2 overdose according to protocols approved by the Johns Hopkins Animal Care and Use Committee. Human plasma was obtained from discarded, pooled, and unlabeled clinical samples. Plasma was diluted to 50% in Tris buffer (50 mM Tris-HCl, 100 mM NaCl, pH 7.8). To this, test peptides/prodrugs were added to 250 or 500 μM final concentration. After the incubation period, one volume (200 μl) of acetonitrile was added to precipitate the protein fraction and the tube was centrifuged at 14,000 for 2 min. The supernatant was analyzed by C18-HPLC and the collected peaks were analyzed by MALDI-TOF as described above.
To determine whether merely the acetylation of the N-terminus of the hK2 prodrug contributed to its stability, an acetylated fluorescence-quenched peptide (ac-Y′GKAFRRLGK′; SEQ ID NO:18) was synthesized and compared its plasma stability with that of the non-acetylated peptide (Y′GKAFRRLGK′; SEQ ID NO:21). […] Analytical HPLC indicated the same result. […] The paradoxical stability of the hK2 prodrug (ac-GKAFRR-L12ADT; SEQ ID NO:41) compared to the peptide substrates may also be due to binding of the L12ADT moiety to plasma proteins that make it inaccessible to the plasma protease activity that is responsible for hydrolysis of unconjugated (and unbound) peptides.

[4] = biological target: Cathepsin D (Homo sapiens, UniProt P07339); test: hydrolysis by tumor-associated proteases: Cathepsin D; assay type: biochemical
Excerpt: (§1) Due to their short length, the hK2 peptide substrates could potentially be substrates for other trypsin-like proteases. Although a rather specific protease substrate can be defined with 7 amino acids, there is a lack of higher order structural information by which natural protein substrates normally impose high specificity. Cancer progression is often correlated with increased protease activity (Koblinsli, J. E. et al. (2000) Clin. Chim. Acta 291:113-135). These activities could be potentially beneficial since they could broaden the scope of applications for protease activated prodrugs. To test the hypothesis that other tumor-associated proteases could activate the prodrug, a number of known proteases (table 3), implicated in cancer progression were selected to determine if our lead substrate, GKAFRRL (SEQ ID NO:30) could be efficiently hydrolyzed by any of these proteases. For this analysis, the trypsin-like serine proteases plasmin and urokinase and cathepsins B and D were selected. Hydrolysis of both the fluorescence quenched peptide substrate and the TG-prodrug was analyzed. […] Plasmin, therefore, could be a valid target for selective activation of the GKAFRR-L12ADT (SEQ ID NO:44) prodrug in other types of cancer where plasmin activation may play an important role.

[5] = biological target: Cathepsin B (Homo sapiens, UniProt P07858); test: hydrolysis by tumor-associated proteases: Cathepsin B; assay type: biochemical
Excerpt: as §1

[6] = biological target: Plasmin (Homo sapiens, UniProt P00747); test: hydrolysis by tumor-associated proteases: Plasmin; assay type: biochemical
Excerpt: as §1

[7] = biological target: T1, hK2; test: hydrolysis in the protease panel: hK2; assay type: biochemical; conditions: enzyme 1 μg/ml, substrate 500 μM; 1 = approximately 0.1% digestion in 1 hour
Excerpt: as §1

[8] = biological target: Urokinase (Homo sapiens, UniProt P00749); test: hydrolysis by tumor-associated proteases: Urokinase; assay type: biochemical
Excerpt: as §1

[9] = enzyme 1 μg/ml, substrate 500 μM, 1 = approximately 0.1% digestion in 1 hour

Plasmin, sequence (P00747 581-810 limits assumed, species assumed): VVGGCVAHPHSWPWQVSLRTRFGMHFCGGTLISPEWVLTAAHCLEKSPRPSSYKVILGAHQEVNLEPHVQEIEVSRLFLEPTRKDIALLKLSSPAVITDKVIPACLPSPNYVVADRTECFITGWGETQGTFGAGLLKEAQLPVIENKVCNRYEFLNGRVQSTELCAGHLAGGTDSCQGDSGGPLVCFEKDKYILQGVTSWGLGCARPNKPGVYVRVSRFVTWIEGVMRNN
Plasmin, sequence (P00747 97-580 partner limits assumed, species assumed): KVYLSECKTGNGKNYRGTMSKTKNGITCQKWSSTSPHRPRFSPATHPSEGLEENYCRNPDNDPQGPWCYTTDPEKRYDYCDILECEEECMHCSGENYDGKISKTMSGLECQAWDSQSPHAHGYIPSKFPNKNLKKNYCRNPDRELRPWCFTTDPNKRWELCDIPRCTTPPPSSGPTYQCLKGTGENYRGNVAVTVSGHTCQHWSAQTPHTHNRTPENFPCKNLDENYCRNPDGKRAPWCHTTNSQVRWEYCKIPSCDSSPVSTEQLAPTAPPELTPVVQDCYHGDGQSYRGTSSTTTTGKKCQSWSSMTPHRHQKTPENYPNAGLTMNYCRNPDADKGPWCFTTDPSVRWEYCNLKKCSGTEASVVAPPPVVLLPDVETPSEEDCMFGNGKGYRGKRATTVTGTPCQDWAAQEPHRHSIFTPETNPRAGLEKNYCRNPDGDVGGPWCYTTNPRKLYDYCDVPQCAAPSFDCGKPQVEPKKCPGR
T1 sequence (P20151 25-261): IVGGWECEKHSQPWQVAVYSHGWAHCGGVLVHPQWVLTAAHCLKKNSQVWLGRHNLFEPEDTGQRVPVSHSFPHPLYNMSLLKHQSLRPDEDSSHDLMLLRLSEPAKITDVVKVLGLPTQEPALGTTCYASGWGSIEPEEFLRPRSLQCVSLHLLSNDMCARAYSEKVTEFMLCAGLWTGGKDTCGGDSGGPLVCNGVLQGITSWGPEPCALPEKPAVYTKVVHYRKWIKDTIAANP
Cathepsin D, sequence (P07339 65-412, species assumed): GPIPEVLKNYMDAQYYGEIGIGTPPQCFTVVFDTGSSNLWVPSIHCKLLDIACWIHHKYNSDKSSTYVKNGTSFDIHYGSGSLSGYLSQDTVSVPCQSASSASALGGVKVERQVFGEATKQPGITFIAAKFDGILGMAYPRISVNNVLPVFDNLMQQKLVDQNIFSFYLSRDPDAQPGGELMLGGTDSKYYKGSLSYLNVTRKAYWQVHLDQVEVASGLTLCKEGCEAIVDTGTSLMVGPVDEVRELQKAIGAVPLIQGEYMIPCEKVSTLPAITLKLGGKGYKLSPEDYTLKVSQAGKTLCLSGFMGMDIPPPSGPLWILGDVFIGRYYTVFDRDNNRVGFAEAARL

C/C=C(/C)C(=O)O[C@H]1C(C)=C2[C@H]([C@@H]1OC(=O)CCCCCCC)[C@@](C)(OC(C)=O)C[C@H](OC(=O)CCC)[C@@]1(O)[C@H]2OC(=O)[C@@]1(C)O [TG, Thapsigargin]
Kd [1]: ≤ 2.2 pM

ac-GKAFRRLG: acetylated non-fluorescence quenched peptide (Ac-GKAFRRLG)
hydrolysis by hK2 (in words) [2]: rapidly hydrolyzed by hK2

CC(=O)N[C@@H](Cc1ccc(O)c([N+](=O)[O-])c1)C(=O)NCC(=O)N[C@@H](CCCCN)C(=O)N[C@@H](C)C(=O)N[C@@H](Cc1ccccc1)C(=O)N[C@@H](CCCNC(=N)N)C(=O)N[C@@H](CCCNC(=N)N)C(=O)N[C@@H](CC(C)C)C(=O)NCC(=O)N[C@@H](CCCCNC(=O)c1ccccc1N)C(=O)O [ac-Y′GKAFRRLGK′] (Ac-[Tyr(3-NO2)]GKAFRRLGK(2Abz)-OH)
plasma hydrolysis compared with the non-acetylated peptide (in words) [3]: completely identical

Abz-GKAFRRLY′: fluorescence quenched peptide substrate with the lead sequence GKAFRRL ([2Abz]GKAFRRL[Tyr(3-NO2)])
hydrolysis following incubation with Cathepsin D (in words) [4]: No appreciable hydrolysis
Relative hydrolysis rate, Cathepsin D [4, 9]: 1
hydrolysis following incubation with Cathepsin B (in words) [5]: No appreciable hydrolysis
Relative hydrolysis rate, Cathepsin B [5, 9]: 1
Relative hydrolysis rate, Plasmin [6, 9]: 36
fold slower rate of hydrolysis by plasmin than by hK2 ([6]; fluorescence quenched peptide substrate): more than 10 fold
Relative hydrolysis rate, hK2 [7]: 353
activity of Urokinase on the substrate (in words) [8]: low activity
Relative hydrolysis rate, Urokinase [8, 9]: 17
